Test results taken from patent US20060165681A1 (GlaxoSmithKline, published 2006).

T1: rat MAG-Fc fusion protein (R&D Systems; 538-MG) (rat; human, UniProt P07722 20-516, limits assumed)
T1 construct: Bought reagent coated on ELISA plates; not shown: human Fc
T1 sequence (looked up): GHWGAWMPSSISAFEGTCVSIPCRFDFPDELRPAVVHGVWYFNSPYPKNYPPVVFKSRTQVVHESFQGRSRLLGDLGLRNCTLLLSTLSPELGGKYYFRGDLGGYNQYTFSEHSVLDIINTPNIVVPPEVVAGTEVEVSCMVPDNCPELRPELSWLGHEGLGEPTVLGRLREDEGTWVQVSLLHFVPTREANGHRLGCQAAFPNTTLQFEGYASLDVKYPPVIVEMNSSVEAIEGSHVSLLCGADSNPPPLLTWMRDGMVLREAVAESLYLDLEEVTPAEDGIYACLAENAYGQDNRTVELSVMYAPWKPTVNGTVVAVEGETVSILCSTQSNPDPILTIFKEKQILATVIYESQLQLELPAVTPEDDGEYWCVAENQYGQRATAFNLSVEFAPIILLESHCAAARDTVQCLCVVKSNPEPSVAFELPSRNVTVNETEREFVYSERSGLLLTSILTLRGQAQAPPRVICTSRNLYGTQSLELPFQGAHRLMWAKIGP


Key:
[1] = molecular target: T1, rat MAG-Fc fusion protein (R&D Systems; …); assay: ELISA on coated rat MAG-Fc, purified antibody
[2] = molecular target: T1, rat MAG-Fc fusion protein (R&D Systems; …); assay: ELISA on coated rat MAG-Fc; purified antibody serially diluted from 5000 ng/ml
Protocol: 96-well Nunc Maxisorp plates were coated overnight at 4° C. with rat MAG-Fc fusion protein (2.5 μg/ml; R&D Systems; Cat.No. 538-MG) in PBS. Plates were washed twice with PBS containing Tween20 (0.1% v/v; PBST) and blocked with PBS containing BSA (1% w/v) for 1 h at room temperature (RT). Purified humanised antibody was adjusted to a starting concentration of 5 μg/ml in blocking buffer and then serial diluted. Antibody samples were incubated 1 h at RT and plates then washed 3× with PBST. Secondary antibody (Goat anti-human light chain specific-peroxidase conjugate; Sigma A-7164) was added diluted 1/5000 in blocking buffer and incubated for 1 h at RT. Wells were washed three times as above and binding detected by adding substrate (OPD tablets dissolved according to instructions; Sigma P-9187). Colour development was monitored and the reaction stopped using 3M H₂SO₄ Colour development was read at 490 nm.

Row | Binder | binding result [1] | binding result [2]
1 | humanised anti-MAG antibody BVh1/CVl1 (antibody, V domains shown, The purified material has a mutated human IgG1 constant region (Kabat residues 248 and 250 changed to alanine) and a human kappa light chain; The antibody was also tested as culture supernatant on human MAG, and the constant region is not restated there; also called BVh1/CVl1 mutated IgG1) VH: QVQLVQSGSELKKPGASVKVSCKASGYTFTNYGMNWVRQAPGQGLEWMGWINTYTGEPTYADDFTGRFVFSLDTSVSTAYLQISSLKAEDTAVYYCARNPINYYGINYEGYVMDYWGQGTLVTVSS VL: not shown | binds | –
2 | humanised anti-MAG antibody BVh3/CVl3 (antibody, human IgG1, V domains shown, The antibody was also tested as culture supernatant on human MAG) VH: QVQLVQSGSELKKPGASVKVSCKASGYTFTNYGMNWVRQAPGQGLEWMGWINTYTGEPTYADDFTGRFVFSLDTSVSTAYLQISSLKAEDTATYFCARNPINYYGINYEGYVMDYWGQGTLVTVSS VL: DIVMTQSPDSLAVSLGERATINCKSSHSVLYSSNQKNYLAWYQQKPGQPPKLLIYWASTRESGVPDRFSGSGSGTDFTLTISSLHTEDVAVYYCHQYLSSLTFGQGTKLEIKR | – | binds
